Experimental data: the supplement of paper PMC10065799, “High-throughput profiling of sequence recognition by tyrosine kinases and SH2 domains using bacterial peptide display” (eLife, 2023)

What was measured:
[1] = molecular target: c-Src SH2; assay: SH2 binding enrichment of the phosphorylated peptide, bacterial display (enrichment ratio); higher = better substrate or ligand; peptides without Tyr show the background
[2] = molecular target: SHP2-C SH2; assay: as above
[3] = molecular target: Grb2 SH2 (UniProt P62993); assay: as above
[4] = molecular target: FGFR1 (UniProt P11362); assay: phosphorylation enrichment, bacterial display (enrichment ratio); higher = better substrate or ligand; peptides without Tyr show the background
FGFR1, sequence (P11362 whole entry, looked up): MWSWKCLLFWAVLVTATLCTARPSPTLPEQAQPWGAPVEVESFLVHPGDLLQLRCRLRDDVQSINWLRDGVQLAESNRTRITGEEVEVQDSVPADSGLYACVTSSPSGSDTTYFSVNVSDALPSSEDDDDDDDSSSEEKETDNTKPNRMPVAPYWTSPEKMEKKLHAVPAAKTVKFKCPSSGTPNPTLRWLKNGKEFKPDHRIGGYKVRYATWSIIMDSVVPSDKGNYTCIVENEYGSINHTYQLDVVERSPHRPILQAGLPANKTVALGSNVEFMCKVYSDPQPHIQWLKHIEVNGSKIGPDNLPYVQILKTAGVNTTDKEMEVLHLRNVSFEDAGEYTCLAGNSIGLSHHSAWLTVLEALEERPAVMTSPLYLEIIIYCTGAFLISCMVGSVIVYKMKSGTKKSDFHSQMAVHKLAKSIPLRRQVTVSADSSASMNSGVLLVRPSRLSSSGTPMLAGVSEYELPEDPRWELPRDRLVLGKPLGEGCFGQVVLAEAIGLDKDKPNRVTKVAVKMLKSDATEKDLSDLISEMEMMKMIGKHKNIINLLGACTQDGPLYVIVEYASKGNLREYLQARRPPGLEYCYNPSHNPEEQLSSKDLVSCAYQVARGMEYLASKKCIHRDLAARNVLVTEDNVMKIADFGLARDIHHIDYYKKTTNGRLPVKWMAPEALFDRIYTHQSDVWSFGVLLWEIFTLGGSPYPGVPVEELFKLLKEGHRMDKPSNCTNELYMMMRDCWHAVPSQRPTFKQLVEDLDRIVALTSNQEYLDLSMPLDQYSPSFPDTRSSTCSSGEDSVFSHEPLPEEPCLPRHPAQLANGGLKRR

[5] = test system: Fer (mouse); assay: as above
[6] = test system: c-Abl (mouse); assay: as above
[7] = molecular target: Fyn (UniProt P06241); assay: as above
Fyn, sequence (P06241 whole entry, looked up): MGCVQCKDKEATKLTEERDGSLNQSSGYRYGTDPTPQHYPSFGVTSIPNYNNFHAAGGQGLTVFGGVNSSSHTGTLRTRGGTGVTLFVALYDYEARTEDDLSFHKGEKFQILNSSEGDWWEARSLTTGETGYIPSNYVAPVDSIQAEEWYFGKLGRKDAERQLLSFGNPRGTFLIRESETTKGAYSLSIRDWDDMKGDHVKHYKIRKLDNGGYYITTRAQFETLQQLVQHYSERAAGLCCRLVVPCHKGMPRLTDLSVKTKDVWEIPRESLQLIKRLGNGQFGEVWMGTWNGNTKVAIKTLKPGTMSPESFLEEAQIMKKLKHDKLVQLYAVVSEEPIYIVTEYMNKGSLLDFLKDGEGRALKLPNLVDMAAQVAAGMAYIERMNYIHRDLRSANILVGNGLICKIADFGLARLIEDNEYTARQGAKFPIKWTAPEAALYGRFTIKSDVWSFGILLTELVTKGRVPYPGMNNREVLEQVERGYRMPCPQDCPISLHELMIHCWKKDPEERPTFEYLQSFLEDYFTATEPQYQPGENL

[8] = molecular target: Jak2 (UniProt O60674); assay: as above
[9] = molecular target: MERTK (UniProt Q12866); assay: as above
MERTK, sequence (Q12866 whole entry, looked up): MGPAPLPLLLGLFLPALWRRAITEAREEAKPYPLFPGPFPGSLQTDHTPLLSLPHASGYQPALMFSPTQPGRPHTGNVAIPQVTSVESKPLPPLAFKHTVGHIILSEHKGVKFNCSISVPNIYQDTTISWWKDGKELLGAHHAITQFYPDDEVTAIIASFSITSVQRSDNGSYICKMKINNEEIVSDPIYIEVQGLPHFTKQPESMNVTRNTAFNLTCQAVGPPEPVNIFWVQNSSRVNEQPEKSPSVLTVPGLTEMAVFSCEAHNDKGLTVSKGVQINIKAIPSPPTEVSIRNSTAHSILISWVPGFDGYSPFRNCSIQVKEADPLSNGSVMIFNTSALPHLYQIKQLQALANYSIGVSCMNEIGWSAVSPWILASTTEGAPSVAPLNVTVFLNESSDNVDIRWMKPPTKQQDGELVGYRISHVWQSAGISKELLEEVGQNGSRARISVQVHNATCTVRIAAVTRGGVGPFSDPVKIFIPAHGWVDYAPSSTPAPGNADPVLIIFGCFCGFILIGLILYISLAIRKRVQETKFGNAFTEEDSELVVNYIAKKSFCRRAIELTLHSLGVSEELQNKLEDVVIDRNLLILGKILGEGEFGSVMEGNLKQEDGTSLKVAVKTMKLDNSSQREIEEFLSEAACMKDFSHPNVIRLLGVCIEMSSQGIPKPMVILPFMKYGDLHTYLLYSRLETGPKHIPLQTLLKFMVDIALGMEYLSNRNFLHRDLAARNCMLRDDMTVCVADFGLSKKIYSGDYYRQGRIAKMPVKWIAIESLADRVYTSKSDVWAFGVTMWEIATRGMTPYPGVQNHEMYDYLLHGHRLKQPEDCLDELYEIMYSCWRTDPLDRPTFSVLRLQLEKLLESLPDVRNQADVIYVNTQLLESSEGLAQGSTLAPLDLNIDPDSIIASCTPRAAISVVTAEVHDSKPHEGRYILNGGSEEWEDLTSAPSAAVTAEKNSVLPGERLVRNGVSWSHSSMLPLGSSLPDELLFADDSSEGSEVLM

[10] = molecular target: FGFR3 (UniProt P22607); assay: as above
[11] = molecular target: EPHB2 (UniProt P29323); assay: as above
[12] = molecular target: Fes (UniProt P07332); assay: as above
Fes, sequence (P07332 whole entry, looked up): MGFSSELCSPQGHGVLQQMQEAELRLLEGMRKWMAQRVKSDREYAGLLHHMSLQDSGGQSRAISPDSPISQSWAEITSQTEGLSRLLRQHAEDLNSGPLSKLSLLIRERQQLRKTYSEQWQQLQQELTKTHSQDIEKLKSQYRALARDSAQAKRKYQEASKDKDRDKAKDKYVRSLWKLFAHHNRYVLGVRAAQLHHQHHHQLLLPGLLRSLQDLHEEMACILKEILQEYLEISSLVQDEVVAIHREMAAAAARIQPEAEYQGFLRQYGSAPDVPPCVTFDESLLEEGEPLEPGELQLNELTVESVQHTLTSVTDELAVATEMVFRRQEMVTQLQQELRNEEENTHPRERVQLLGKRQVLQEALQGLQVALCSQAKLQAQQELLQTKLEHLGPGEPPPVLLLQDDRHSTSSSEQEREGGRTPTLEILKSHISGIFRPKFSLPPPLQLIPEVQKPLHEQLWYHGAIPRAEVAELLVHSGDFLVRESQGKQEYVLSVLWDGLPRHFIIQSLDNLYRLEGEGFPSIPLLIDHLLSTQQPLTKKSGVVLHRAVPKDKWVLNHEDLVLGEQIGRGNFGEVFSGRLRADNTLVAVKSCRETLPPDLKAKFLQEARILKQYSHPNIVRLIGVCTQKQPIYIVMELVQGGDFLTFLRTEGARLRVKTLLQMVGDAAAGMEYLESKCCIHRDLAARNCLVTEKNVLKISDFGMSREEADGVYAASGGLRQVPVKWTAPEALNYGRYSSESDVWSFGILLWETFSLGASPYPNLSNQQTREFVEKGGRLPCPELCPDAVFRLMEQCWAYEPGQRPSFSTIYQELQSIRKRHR

[13] = test system: c-Src; assay: as above
[14] = test system: AncSZ; assay: as above
[15] = molecular target: EPHB1 (UniProt P54762); assay: as above
EPHB1, sequence (P54762 whole entry, looked up): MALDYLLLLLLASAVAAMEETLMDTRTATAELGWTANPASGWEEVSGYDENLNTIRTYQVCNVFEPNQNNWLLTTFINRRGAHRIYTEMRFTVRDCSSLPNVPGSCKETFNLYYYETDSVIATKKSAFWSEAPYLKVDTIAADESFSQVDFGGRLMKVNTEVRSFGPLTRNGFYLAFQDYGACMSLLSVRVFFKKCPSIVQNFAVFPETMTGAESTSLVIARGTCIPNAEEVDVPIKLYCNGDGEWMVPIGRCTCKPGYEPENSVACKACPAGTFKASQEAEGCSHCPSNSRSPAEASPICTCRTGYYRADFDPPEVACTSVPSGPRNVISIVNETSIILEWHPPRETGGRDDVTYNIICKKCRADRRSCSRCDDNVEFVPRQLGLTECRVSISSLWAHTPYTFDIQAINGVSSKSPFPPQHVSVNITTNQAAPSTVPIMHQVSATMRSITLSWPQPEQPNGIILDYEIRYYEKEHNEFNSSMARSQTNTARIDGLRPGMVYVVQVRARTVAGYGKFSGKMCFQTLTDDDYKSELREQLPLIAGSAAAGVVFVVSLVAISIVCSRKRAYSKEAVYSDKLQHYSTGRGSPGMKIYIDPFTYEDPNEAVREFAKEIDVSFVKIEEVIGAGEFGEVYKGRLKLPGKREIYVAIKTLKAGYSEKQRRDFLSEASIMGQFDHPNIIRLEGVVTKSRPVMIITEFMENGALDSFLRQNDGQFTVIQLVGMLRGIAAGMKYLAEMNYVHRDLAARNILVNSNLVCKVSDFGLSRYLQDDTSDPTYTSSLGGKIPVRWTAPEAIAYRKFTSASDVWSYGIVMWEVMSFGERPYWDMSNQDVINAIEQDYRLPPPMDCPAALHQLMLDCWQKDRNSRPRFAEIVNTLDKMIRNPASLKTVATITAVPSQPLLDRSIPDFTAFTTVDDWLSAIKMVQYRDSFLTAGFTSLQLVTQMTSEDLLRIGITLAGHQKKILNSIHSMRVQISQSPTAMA

[16] = molecular target: Hck (UniProt P08631); assay: as above
Hck, sequence (P08631 whole entry, looked up, the tested form may be a part): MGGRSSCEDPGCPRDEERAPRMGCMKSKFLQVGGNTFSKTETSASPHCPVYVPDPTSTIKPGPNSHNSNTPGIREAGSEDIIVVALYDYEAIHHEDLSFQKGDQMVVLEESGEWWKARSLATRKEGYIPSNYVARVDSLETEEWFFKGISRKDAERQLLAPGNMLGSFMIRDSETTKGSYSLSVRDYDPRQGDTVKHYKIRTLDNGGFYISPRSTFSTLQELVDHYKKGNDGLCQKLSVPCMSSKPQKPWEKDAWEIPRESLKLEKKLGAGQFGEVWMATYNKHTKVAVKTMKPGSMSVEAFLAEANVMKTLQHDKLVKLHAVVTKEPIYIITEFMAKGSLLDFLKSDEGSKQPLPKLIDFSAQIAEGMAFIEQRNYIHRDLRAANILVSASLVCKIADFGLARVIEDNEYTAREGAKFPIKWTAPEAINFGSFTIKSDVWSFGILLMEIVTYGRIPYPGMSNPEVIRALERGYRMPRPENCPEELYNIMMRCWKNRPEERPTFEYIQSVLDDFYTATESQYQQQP
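Throughout, for SH2 binding enrichment of the phosphorylated peptide, bacterial display: peptide library displayed on the E. coli surface as eCPX fusions, selected cells deep-sequenced, score is each peptide's frequency after selection divided by its frequency in the input.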
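Throughout, for phosphorylation enrichment, bacterial display: 11-residue human phosphosite peptides and single-mutation variants displayed on the E. coli surface, counted by deep sequencing, each peptide's frequency after selection divided by its frequency in the unselected input library; frequency after pTyr selection over input frequency; kinase dosed for 20-30% of maximal phosphorylation in three min.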

Row | SH2 binding enrichment [1] | SH2 binding enrichment [2] | SH2 binding enrichment [3] | Sequence | phosphorylation enrichment [4] | phosphorylation enrichment [5] | phosphorylation enrichment [6] | phosphorylation enrichment [7] | phosphorylation enrichment [8] | phosphorylation enrichment [9] | phosphorylation enrichment [10] | phosphorylation enrichment [11] | phosphorylation enrichment [12] | phosphorylation enrichment [13] | phosphorylation enrichment [14] | phosphorylation enrichment [15] | phosphorylation enrichment [16]
1 | 0.468 | 1.08 | 1.11 | FPHVISARLWR [SMAD4_Y95_Y95S] | 0.477 | 0.524 | 0.701 | 0.581 | 0.805 | 0.458 | 0.557 | 0.547 | 0.962 | 0.498 | 1 | 0.419 | 0.429
2 | 0.547 | 0.65 | 0.956 | LNTFHHAGVSA [POLR2A_Y1109_Y1109H] | 0.462 | 0.766 | 1.36 | 0.356 | 1.19 | 0.883 | 0.731 | 0.76 | 2.04 | 1.17 | 0.884 | 0.632 | 0.575
3 | 0.478 | 0.664 | 0.801 | KLFFIYTSGTT [SLC27A4_Y245_YF] | 0.531 | 0.529 | 0.967 | 0.435 | 1.1 | 0.398 | 0.813 | 0.646 | 1.19 | 0.345 | 1.16 | 0.633 | 0.424
4 | 0.5 | 0.583 | 1.05 | LAIEWYVVVCK [RHO_Y136_R135W] | 1.45 | 0.847 | 2.27 | 0.972 | 1.88 | 0.676 | 2.21 | 1.33 | 3.21 | 0.852 | 2.49 | 1.8 | 1.36
5 | 1.37 | 1.71 | 1.48 | KYWREYILSLE [GPC3_Y299] | 0.499 | 0.366 | 0.677 | 0.427 | 0.974 | 0.39 | 0.752 | 0.569 | 1.05 | 0.856 | 1.03 | 0.541 | 0.461
6 | 0.953 | 1.66 | 0.889 | RRNTYYASIAK [ACADM_Y353] | 0.536 | 0.611 | 0.939 | 0.762 | 1.12 | 1.13 | 0.76 | 0.541 | 0.889 | 0.81 | 0.902 | 0.702 | 0.853
7 | 0.517 | 2.26 | 0.858 | LHAALYKRKLL [TTLL5_Y542_E543K] | 0.483 | 0.41 | 1.24 | 0.464 | 1.17 | 0.502 | 0.518 | 0.527 | 0.702 | 0.551 | 0.771 | 0.454 | 0.536
8 | 4.08 | 0.654 | 0.909 | PEPHIYAVADV [MYO9A_Y216_L211P] | 0.667 | 3.02 | 25 | 3.21 | 0.695 | 2.97 | 1.01 | 2.18 | 1.55 | 3.72 | 1.11 | 1.11 | 3.16
9 | 0.484 | 0.635 | 0.641 | FEAMEYLESKQ [BTK_Y511_C506Y_YF] | 0.527 | 0.543 | 0.966 | 0.499 | 1.17 | 0.474 | 0.993 | 0.682 | 1.36 | 0.427 | 1.24 | 0.534 | 0.567
10 | 4.11 | 1.2 | 1.02 | LGQRIYQYIQS [DYRK1B_Y271] | 5.29 | 18.1 | 2.74 | 4.18 | 1.3 | 13.5 | 3.3 | 12.5 | 2.86 | 5.08 | 1.54 | 20.9 | 8.12
11 | 0.855 | 0.611 | 0.861 | TQNGVYSAANF [DDX5_Y535_YF] | 0.489 | 4.42 | 2 | 7.62 | 0.444 | 6.66 | 0.443 | 1.94 | 0.541 | 5.43 | 0.56 | 1.4 | 8.3
12 | 0.471 | 0.748 | 0.924 | AEEKEYHAEGG [EGFR_Y869] | 0.474 | 0.572 | 0.653 | 0.536 | 0.908 | 0.403 | 0.596 | 0.593 | 1.05 | 0.486 | 1.09 | 0.623 | 0.451
13 | 0.699 | 0.648 | 1.02 | GDYYRSLAEVA [YWHAG_Y133_Y133S] | 5.42 | 0.419 | 1.82 | 0.916 | 1.45 | 0.663 | 3.26 | 1.09 | 0.75 | 0.664 | 1.3 | 1.68 | 1.36
14 | 0.777 | 0.606 | 0.954 | HNELYYEAAEH [VANGL1_Y345_E347A] | 5.49 | 7.27 | 0.854 | 1.52 | 1.16 | 5.06 | 4.38 | 1.06 | 1.44 | 1.79 | 1.56 | 1.12 | 2.1
15 | 1.01 | 0.951 | 1.19 | REIIAYQPFGK [PRKCG_Y529_P524R_YF] | 0.305 | 0.291 | 0.705 | 0.499 | 0.584 | 0.305 | 0.398 | 0.385 | 0.635 | 0.466 | 0.524 | 0.51 | 0.438
16 | 0.581 | 0.546 | 0.735 | LDAFIYDAALL [GRIN2A_Y730_V734L] | 0.55 | 14.9 | 4.39 | 8.97 | 1.33 | 2.28 | 0.902 | 2.32 | 1.86 | 7.16 | 1.44 | 2.23 | 7.57

Row | Sequence | SH2 binding enrichment [1] | SH2 binding enrichment [2] | SH2 binding enrichment [3] | phosphorylation enrichment [4] | phosphorylation enrichment [5] | phosphorylation enrichment [6] | phosphorylation enrichment [7] | phosphorylation enrichment [8] | phosphorylation enrichment [9] | phosphorylation enrichment [10] | phosphorylation enrichment [11] | phosphorylation enrichment [12] | phosphorylation enrichment [13] | phosphorylation enrichment [14] | phosphorylation enrichment [15] | phosphorylation enrichment [16]
17 | SIKDKYVTAVF [KCNH2_Y611_L615V_YF] | 0.538 | 0.658 | 0.82 | 0.491 | 0.523 | 0.682 | 0.543 | 0.839 | 0.443 | 0.541 | 0.475 | 0.794 | 0.501 | 0.667 | 0.48 | 0.467
